From patent US7745185B1, “Sulfotransferase 1A3 sequence variants” (Mayo Foundation for Medical Education and Research, priority 2003, dated 2010) come the findings set out here.

Series [1] deals with T1, SULT1A3 (Homo sapiens, UniProt P0DMM9, K234N).
T1 construct: made in house; host or cells: COS-1 cells transfected with pCR3.1 construct; high speed supernatant cytosol, unpurified
Description: SULT1A3 enzyme activity assay (sulfate conjugation of dopamine with PAPS) in COS-1 cytosol preparations. Type of series: biochemical. The settings on record: recombinant allozyme expressed in COS-1 cells, dopamine 40 μM. From the text:
COS-1 cell expression: Two different SULT1A3 expression constructs were made using the pCR3.1 expression vector. One of the constructs was designed to express the SULT1A3 Lys234Asn allozyme, while the remaining construct was designed to express a wild type SULT1A3 polypeptide. All SULT1A3 cDNA sequences containing SULT1A3 nucleotide sequence variants used to create the expression constructs were created by site directed mutagenesis using the method described by Ho et al. (1989) Gene 77:51-59. Each SULT1A3 cDNA was amplified by PCR and subcloned into the eukaryotic expression vector pCR3.1 (Promega, Madison, Wis.). […]
Enzyme Assays: β-galactosidase activity in each of the COS-1 HSS preparations was measured with the β-galactosidase Enzyme Assay System (Promega, Madison, Wis.). […] The protein concentration of each recombinant protein preparation was determined by the dye-binding method of Bradford with bovine serum albumin (BSA) as a standard.
SULT1A3 enzyme activity was measured with an assay that involves sulfate conjugation of a sulfate acceptor substrate, dopamine (40 μM), in the presence of the sulfate donor 3′-phosphoadenosine-5′-phosphosulfate (PAPS). […] Enzyme activity was expressed as nanomoles (nmoles) of sulfate conjugated product formed per hour of incubation. […]

The target in series [2] is T2, SULT1A3 (Homo sapiens, UniProt P0DMM9).
T2 construct: made in house; host or cells: COS-1 cells transfected with pCR3.1 construct; high speed supernatant cytosol, unpurified
The series is described as follows: Substrate kinetic studies, apparent Km for dopamine and PAPS. Type of series: biochemical. The conditions noted are these: recombinant enzyme. The procedure:
SULT1A3 enzyme activity was measured with an assay that involves sulfate conjugation of a sulfate acceptor substrate, dopamine (40 μM), in the presence of the sulfate donor 3′-phosphoadenosine-5′-phosphosulfate (PAPS). […] Cytosol from COS-1 cells transfected with empty pCR3.1 were used to correct for endogenous SULT activity. Because SULTs display profound substrate inhibition, a range of dopamine concentrations were tested to ensure that the assays were performed at a dopamine concentration that yielded maximal activity for the Lys234Asn allozyme. Enzyme activity was expressed as nanomoles (nmoles) of sulfate conjugated product formed per hour of incubation. Apparent Km values for PAPS were determined in the presence of dopamine, with PAPS concentrations that varied from 0.035 μM to 0.5 μM and dopamine concentrations that varied from 2.5 μM to 80 μM.
Data Analysis: Apparent Km values were calculated by using the method of Wilkinson with a computer program written by Cleland. Wilkinson, Biochem. J., 80:324-332 (1961); and Cleland, Nature, 198:463-365 (1963). Statistical comparisons of data were performed by ANOVA with the StatView program, version 4.5 (Abacus Concepts, Inc., Berkeley, Calif.). Linkage analysis was performed after all DNA samples had been genotyped at each of the 6 polymorphic sites observed. D′ values, a quantitative method for reporting linkage data that is independent of allele frequency (Hartl and Clark, Principles of Population Genetics, 3rd ed. (1997) Sinauer Associates, Inc., (Sunderland, Mass.), pp. 96-106; and Hedrick, Genetics of Populations, 2nd ed. (2000) Jones and Bartlett (Sudbury, Mass.), pp. 396-405), then were calculated. The genotype data also were used to assign inferred haplotypes using a program based on the E-M algorithm (Long et al. (1995) Am. J. Hum. Genet. 56:799-810; and Excoffier and Slatkin (1995) Mol. Biol. Evol. 12:921-927). Unambiguous haplotype assignment also was possible on the basis of genotype for samples that contained no more than one heterozygous polymorphism.
Alterations in amino acid sequence can alter enzyme substrate affinity and/or catalytic efficiency. Substrate kinetic studies were conducted to determine whether the Lys234Asn allozyme differed from the WT SULT1A3 protein in these aspects. A series of dopamine and PAPS concentrations were used to estimate apparent Km values for recombinant wild type SULT1A3 and for the Lys234Asn variant allozyme.

[3] abbreviates: PAPS 0.035 μM to 0.5 μM in the presence of dopamine, read-out: apparent Km for PAPS.
[4] abbreviates: dopamine 2.5 μM to 80 μM, read-out: apparent Km for dopamine.

Where two headings read alike, the source gives them in different places.

B1: Lys234Asn: SULT1A3 polypeptide having an asparagine at amino acid residue 234 (allozyme encoded by thymine at nucleotide 702) (protein, listed as Homo sapiens)
chain: MELIQDTSRPPLEYVKGVPLIKYFAEALGPLQSFQARPDDLLINTYPKSGTTWVSQILDMIYQGGDLEKCNRAPIYVRVPFLEVNDPGEPSGLETLKDTPPPRLIKSHLPLALLPQTLLDQKVKVVYVARNPKDVAVSYYHFHRMEKAHPEPGTWDSFLEKFMAGEVSYGSWYQHVQEWWELSRTHPVLYLFYEDMKENPKREIQKILEFVGRSLPEETMDFMVQHTSFKEMKNNPMTNYTTVPQELMDHSISPFMRKGMAGDWKTTFTVAQNERFDADYAEKMAGCSLSFRSEL
With B1, the “enzyme activity as percentage of WT activity” value with SULT1A3 [1] stood at 27%. Also, in the series with SULT1A3 [1] (relative to WT SULT1A3), the “reduction in enzyme activity” value is listed as 73%. In addition, the Km (in general, the substrate concentration at which the rate is half of its maximum) with SULT1A3 [2] (setting [3]) came out at 0.107 µM; in the series with SULT1A3 [2] (setting [4]) it was 9.8 µM.

B2: WT: reference SULT1A3 polypeptide (SEQ ID NO:4) that contains a lysine at amino acid residue 234 (protein, listed as Homo sapiens)
chain: MELIQDTSRPPLEYVKGVPLIKYFAEALGPLQSFQARPDDLLINTYPKSGTTWVSQILDMIYQGGDLEKCNRAPIYVRVPFLEVNDPGEPSGLETLKDTPPPRLIKSHLPLALLPQTLLDQKVKVVYVARNPKDVAVSYYHFHRMEKAHPEPGTWDSFLEKFMAGEVSYGSWYQHVQEWWELSRTHPVLYLFYEDMKENPKREIQKILEFVGRSLPEETMDFMVQHTSFKEMKKNPMTNYTTVPQELMDHSISPFMRKGMAGDWKTTFTVAQNERFDADYAEKMAGCSLSFRSEL
B2: the Km in the series with SULT1A3 [2] (setting [3]) is 0.112 µM; in the series with SULT1A3 [2] (setting [4]) it was 10.4 µM.
